The results in this text go back to patent US20130142788A1 (published 2013).

Positions count from the first letter of the chain named. In names and notes the source's numbering stands. Where two headings read alike, the source gives them in different places.

Test [1] addresses T1, recombinant mature dimeric myostatin (human and mouse (mature sequences 100% …, UniProt O08689 268-376)).
T1 sequence: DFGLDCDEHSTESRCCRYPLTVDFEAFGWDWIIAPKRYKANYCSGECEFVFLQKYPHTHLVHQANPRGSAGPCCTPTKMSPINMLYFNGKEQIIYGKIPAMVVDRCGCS
Kind of test: cell-based or functional assay.

For test [2], the target named is T1, recombinant mature dimeric myostatin. Kind of test: Kinexa solution phase affinity. On the procedure:
Kinexa (Sapidyne Instruments) solution phase affinity was used to determine the overall affinity for a range of anti-myostatin molecules. Myostatin beads were prepared either by adsorption (polymethylmethacrylate beads-PMMA) or amine coupling (NHS-activated sepharose beads). The range of anti-myostatin molecules studied necessitated the generation of beads coated with different concentrations of myostatin. For the solution phase portion of the assay, a fixed concentration of antibody was incubated with a broad range of myostatin concentrations and allowed to reach equilibrium by incubation at r.t. for at least 2 h before analysis proceeded. The myostatin beads were then used to determine the amount of free antibody present in the solution phase samples, by means of the free antibody binding to the myostatin bead matrix then detected using an appropriate secondary antibody (either anti-human or anti-mouse depending on the construct being tested) labelled with a fluorescent dye. The binding curves where fitted using the Kinexa Pro analysis software inherent to the machine. Multiple runs using varying starting concentrations of antibody were then compiled and analysed using the n-curve analysis software to give a more accurate determination of affinity.

Test [3] deals with T2, GDF-11 (UniProt O95390 299-407).
T2 construct: also called Growth and Differentiation Factor-11
T2 sequence (looked up): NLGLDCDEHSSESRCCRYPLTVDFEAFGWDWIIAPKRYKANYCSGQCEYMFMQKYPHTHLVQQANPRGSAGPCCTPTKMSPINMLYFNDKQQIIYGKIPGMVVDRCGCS
The experiment in a line: ELISA, growth factors coated at 0.5 µg/ml, H8L5 titrated. On the procedure: An ELISA was performed to determine whether H8L5 might bind any other growth factors and especially other members of the TGF family which were known to share some homology around the proposed epitope sequence. By coating an ELISA plate with the various growth factors at 0.5 μg/ml and titrating in H8L5 under standard ELISA conditions, It was concluded that the only other factor tested to which H8L5 could bind was GDF-11 wherein the concentration required to give 50% binding was 3-fold lower than myostatin (FIG. 22).

Test [4] addresses T3, Fc R 2a His polymorphism (UniProt P12318 34-217, limits assumed).
T3 construct: also called FcγRIIa His
T3 sequence (looked up): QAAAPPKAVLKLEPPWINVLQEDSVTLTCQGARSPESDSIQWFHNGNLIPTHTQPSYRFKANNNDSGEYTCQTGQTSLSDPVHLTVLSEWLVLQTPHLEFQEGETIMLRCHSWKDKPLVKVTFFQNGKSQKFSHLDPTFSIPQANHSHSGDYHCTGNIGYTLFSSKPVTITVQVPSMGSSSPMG
Kind of test: ProteOn XPR36 SPR, antibody immobilised, receptor 8-2048 nM, equilibrium model. The protocol:
(§1) Binding analysis to Fc R5 and C1q was carried out using the ProteOn XPR36. The test antibodies (H8L5 and Fc-disabled H8L5) were immobilised on a GLC biosensor chip by primary amine coupling. The Fc Rs were used at 2048 nM, 512 nM, 128 nM, 32 nM and 8 nM, while C1q was used at 512 nM, 128 nM, 32 nM, 8 nM and 2 nM. A buffer injection (i.e. 0 nM) was used to double reference the binding sensorgrams. Due to the nature of the interaction (i.e. fast on/fast-off) regeneration was not required and the binding sensorgrams returned to baseline by use of a 20 min dissociation time and subsequent buffer injections. The data was fitted to the Equilibrium model inherent to the PrateOn's analysis software, using a global R-max for each receptor group and for C1q binding (i.e. Fc R 2aHis and Arg polymorphisms were analysed together and Fc R3aPhe and Val polymorphisms were analysed together, while C1q was analysed separately).

In test [5] the target is T4, Fc R 2a Arg polymorphism (UniProt P12318 34-217, limits assumed).
T4 construct: also called FcγRIIa Arg
T4 sequence (looked up): T3 sequence (looked up) with H134R
The test is described as above. On the procedure:
as §1

In test [6] the target is T5, Fc R3a Phe polymorphism (UniProt P08637 17-208, limits assumed).
T5 construct: also called FcγRIIIa Phe
T5 sequence (P08637 17-208 limits assumed): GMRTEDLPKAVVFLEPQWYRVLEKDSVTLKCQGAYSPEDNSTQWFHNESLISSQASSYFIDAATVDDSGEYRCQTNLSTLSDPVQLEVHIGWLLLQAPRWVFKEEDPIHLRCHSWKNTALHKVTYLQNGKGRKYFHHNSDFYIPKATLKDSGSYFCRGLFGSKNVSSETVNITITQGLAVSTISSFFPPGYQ
The test is described as above. On the procedure:
as §1

For test [7], the target named is T6, Fc R3a Val polymorphism (UniProt P08637 17-208, limits assumed).
T6 construct: also called FcγRIIIa Val
T6 sequence (P08637 17-208 F176V limits assumed): as the sequence (P08637 17-208 limits assumed) above, with F160V counted along it
The test is described as above. On the procedure:
as §1

In test [8] the target is T1, recombinant mature dimeric myostatin. Kind of test: ActRIIb neutralisation ELISA: inhibition of 2 nM biotinylated myostatin binding to coated ActRIIb. Summed up:
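Soluble ActRIIb coated at 1 μg/ml; 2 nM biotinylated myostatin pre-incubated 30 min at 37° C with antibody dilution series, then bound to plate 1 h at 37° C. Bound myostatin detected with streptavidin-HRP, absorbance at 490 nm after acid stop.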

The target in test [9] is T7, rhBMP6 (human, UniProt P22004).
T7 construct: recombinant (rh); form not further stated; member of the growth factor panel m51, named only on the sheet
T7 sequence (looked up): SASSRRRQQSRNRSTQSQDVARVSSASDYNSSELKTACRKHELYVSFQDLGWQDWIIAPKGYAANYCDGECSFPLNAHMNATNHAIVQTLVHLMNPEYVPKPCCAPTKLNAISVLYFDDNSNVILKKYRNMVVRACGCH
Kind of test: ELISA: plate coated with the growth factor at 0.5 µg/ml, H8L5 titrated; read-out % Bound. A general note: In an ELISA, binding on a coated surface is turned into a signal by an enzyme label.

For test [10], the target named is T8, rhBMP9 (human, UniProt Q9UK05).
T8 construct: recombinant (rh); form not further stated; member of the growth factor panel m51, named only on the sheet
T8 sequence (looked up): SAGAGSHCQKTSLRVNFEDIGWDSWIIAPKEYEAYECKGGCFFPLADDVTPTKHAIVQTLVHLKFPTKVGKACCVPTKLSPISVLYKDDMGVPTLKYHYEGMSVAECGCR
Described as above.

Test [11] addresses T1, recombinant mature dimeric myostatin. Kind of test: cell-based or functional assay. This is another data set of the same source.
For test [12] the target is unchanged. The experiment in a line: cell-based or functional assay. The source holds these as a separate data set.
Test [13] shares this target. Kind of test: cell-based or functional assay. The source holds these as a separate data set.
The target is the same in test [14]. The experiment in a line: ELISA, myostatin coated at 10 ng/well. The protocol: 10B3 and 10B3 chimera (10B3C) bound myostatin (R&D Systems, 788-G8-010/CF) in a sandwich ELISA. Plates were coated with myostatin at 10 ng/well and blocked with Block solution (PBS, 0.1% TWEEN and 1% BSA). Following washing (PBS, 0.1% TWEEN), antibody was incubated at 37° C. for 2 hours over a dilution series and plates washed again prior to incubation at 37° C. for 1 hour with anti-mouse HRP or anti-human HRP (Dako, P0161 & Sigma, A-8400, respectively). Plates were again washed and OPD substrate (Sigma, P9187) added until colourometric reaction occurred and the reaction stopped by the addition of H₂SO₄.

Test [15] shares this target. Kind of test: BIAcore T100 SPR, antibody captured on protein A, myostatin analyte, all curves 1:1 model. On the procedure: (§2) The affinity of 10B3 mouse parental and 10B3C for recombinant myostatin was assessed by BIAcore™ (surface plasmon resonance) analysis. Analysis was carried out by the use of a capture surface: anti-mouse IgG was coupled to a C1 chip by primary amine coupling for 10B3 mouse parental; and a protein A surface was created on a C1 chip by primary amine coupling for 10B3 chimera.
(§3) After capture, recombinant myostatin was passed over the surface at 64 nM, 16 nM, 4 nM, 1 nM, 0.25 nM and 0.0625 nM, with a buffer injection (i.e. 0 nM) used for double referencing. There was a regeneration step between each analyte injection, after which the new antibody capture event occurred before the next injection of myostatin. The data was analysed using both the 1:1 model and the Bivalent model inherent to the T100 machines analysis software (see Table 6). Both capture surfaces could be regenerated using 100 mM phosphoric acid, the work was carried out using HBS-EP as the running buffer and using 25° C. as the analysis temperature.
In general terms: Surface plasmon resonance follows binding to a sensor surface in real time, without labels.

The target is the same in test [16]. Kind of test: BIAcore T100 SPR, antibody captured on protein A, myostatin analyte, all curves Bivalent model. The protocol:
as §2, §3

The target is the same in test [17]. Kind of test: ActRIIb receptor neutralisation ELISA: antibody pre-incubated with 2 nM biotinylated myostatin, binding to coated ActRIIb. On the procedure: Recombinant soluble ActRIIb (R&D Systems 339-RBB) was coated in wells of an ELISA plate at 1 μg/ml in carbonate buffer overnight at 4° C. Plates were blocked (see Block solution above at 2.3) and washed following standard ELISA protocols. In parallel, 2 nM biotinylated myostatin (in-house, as described in 1.1, biotinylated material) was pre-incubated with an antibody dilution series consisting of 10B3, 10B3C, and a negative control (IgG1 isotype control) for 2 hours at 37° C. The biotinylated myostatin:antibody reactions were then added to the ActRIIb coated plate for 1 hour at 37° C. Standard wash procedures were followed prior to addition of 1:1000 diluted streptavidin-HRP conjugate (Dako P0397) and a further 37° C. incubation for 1 hour. Plates were again washed and assayed at absorbance 490 nm following OPD substrate (Sigma) and acid stop solution treatment. Inhibition curves and IC50 values for the inhibition of myostatin activity are shown in FIG. 5 and Table 8 respectively.

B1: H8L5 (antibody, IgG1)
heavy: not shown
light: DIQMTQSPSSLSASVGDRVTITCKASQDINSYLSWFQQKPGKAPKTLIYRANRLVDGVPSKFSGSGSGTDYTLTISSLQPEDFATYYCLQSDEFPLTFGQGTKLEIKRTVAAPSVFIFPPSDEQLKSGTASVVCLLNNFYPREAKVQWKVDNALQSGNSQESVTEQDSKDSTYSLSSTLTLSKADYEKHKVYACEVTHQGLSSPVTKSFNRGEC
notes: Humanised IgG1/kappa; also called 10B3H8L5; copies: 2 + 2
With B1, the “IC50, myostatin responsive reporter gene neutralisation assay (A204)” value in test [1] came to 5 nM. Moreover, in test [2], the Kd was found to be 0.05 nM. In test [3], the “fold lower concentration required to give 50% binding than for myostatin” value was determined as 3 fold. For the same molecule, the binding result in test [4] is listed as “binds”; in test [5], “binds”; in [6], “binds”; in test [7], “binds”; in [9], “no binding (tested: 10^-7 (axis prints no unit))”; in [10] it was “no binding (tested: 10^-7 (axis prints no unit))”. Also, in test [8], the IC50 (usually the midpoint of a concentration-inhibition curve) was 0.101 nM.

B2: Fc-disabled H8L5 (antibody, IgG1)
heavy: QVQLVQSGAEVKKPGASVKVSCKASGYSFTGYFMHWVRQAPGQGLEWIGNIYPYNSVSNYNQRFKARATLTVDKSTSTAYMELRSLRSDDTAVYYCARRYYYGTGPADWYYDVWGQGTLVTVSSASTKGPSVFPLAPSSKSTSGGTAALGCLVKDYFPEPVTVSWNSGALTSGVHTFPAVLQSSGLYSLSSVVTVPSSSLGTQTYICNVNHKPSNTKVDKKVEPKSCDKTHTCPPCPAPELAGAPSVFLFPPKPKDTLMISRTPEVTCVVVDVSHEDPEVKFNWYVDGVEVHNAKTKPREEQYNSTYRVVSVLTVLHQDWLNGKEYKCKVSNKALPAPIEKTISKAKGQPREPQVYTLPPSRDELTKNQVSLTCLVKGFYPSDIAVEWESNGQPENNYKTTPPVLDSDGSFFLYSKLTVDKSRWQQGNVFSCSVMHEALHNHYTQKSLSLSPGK
light: B1 light
notes: hIgG1 Fc disabled (L235A, G237A, EU numbering); also called H8L5 disabled; H8disabledL5; copies: 2 + 2
Consider B2, for which the binding result in test [4], in [5], in test [6] and in [7] was “binds” each time.

B3: 10B3 chimera (antibody, human IgG1, V domains shown)
VH: EVQLQQSGPELVKPGASVKISCKASGYSFTGYFMHWVKQSHGNILDWIGNIYPYNGVSNYNQRFKAKATLTVDKSSSTAYMELRSLTSEDSAVYYCARRYYYGTGPADWYFDVWGTGTLVTVSS
VL: DIKMTQSPSSMYASLRERVTITCKASQDINSYLSWFQQKPGKSPKTLIYRANRLVDGVPSRFSGSGSGQDYSLTISSLEYEDMGIYYCLQCDEFPLTFGAGTKLELKR
notes: 10B3 variable regions on human IgG1/k wild type constant regions; also called HCLC; HcLc
Turning to B3, the “IC50, myostatin responsive reporter gene assay (A204 cells, luciferase)” value in test [11] was 6.2 nM. The results for the “Mean IC50, A204 in vitro activity assay” value in test [12] and in [13] were 3.53 nM and 3.57 nM, respectively. The results for the Kd in test [2], in test [15] and in [16] were 0.548 nM, 0.088 nM and 3.6 nM, respectively. Also, the EC50 – broadly, the concentration that produces a half-maximal response – in [14] worked out at 0.049 µg/mL. The IC50 in [17] stood at 0.138 µg/mL.
